Experimental data taken from PMC10314757.

Tests used:
FcγRIIIb (CD16b) = FcγRIIIb (CD16b) (UniProt O75015); experiment: SPR; BIAcore X100; receptor (20 µg/mL) captured by anti-His-tag antibodies on a CM5 chip, each receptor on its own chip; charge variant as analyte, 2.5 µM to 40 µM, single-cycle; HBS-EP buffer (10 mM HEPES pH 7.4, 150 mM NaCl, 50 µM EDTA, 0.005% P20)
FcγRIIIa (CD16a) = FcγRIIIa (CD16a) (UniProt P08637); experiment: as above

Kd (FcγRIIIb (CD16b)) [µM] | koff (FcγRIIIb (CD16b)) [s⁻¹] | kon (FcγRIIIb (CD16b)) [M⁻¹ s⁻¹] | koff (FcγRIIIa (CD16a)) [s⁻¹] | kon (FcγRIIIa (CD16a)) [M⁻¹ s⁻¹] | Substance
14.3 | 0.82 | 106000 |  |  | trastuzumab proposed biosimilar, acidic charge variants (acidic peak) (antibody)
 |  |  | 0.08 | 102000 | trastuzumab proposed biosimilar, acidic charge variants (acidic peak) (antibody; other documents disagree on this pair)
 | 0.33 | 25600 |  |  | trastuzumab proposed biosimilar, basic charge variants (basic peak) (antibody)
 |  |  | 0.05 | 31300 | trastuzumab proposed biosimilar, basic charge variants (basic peak) (antibody; other documents disagree on this pair)
 | 0.34 | 15400 |  |  | trastuzumab proposed biosimilar, main charge variant (main peak) (antibody)
 |  |  | 0.09 | 36600 | trastuzumab proposed biosimilar, main charge variant (main peak) (antibody; other documents disagree on this pair)
